The results in this text go back to article PMC10515009, “A regulatory GhBPE-GhPRGL module maintains ray petal length in Gerbera hybrida”.

The target of this data set is T1, GST-N-GhBPE (Gerbera hybrida).
T1 chain: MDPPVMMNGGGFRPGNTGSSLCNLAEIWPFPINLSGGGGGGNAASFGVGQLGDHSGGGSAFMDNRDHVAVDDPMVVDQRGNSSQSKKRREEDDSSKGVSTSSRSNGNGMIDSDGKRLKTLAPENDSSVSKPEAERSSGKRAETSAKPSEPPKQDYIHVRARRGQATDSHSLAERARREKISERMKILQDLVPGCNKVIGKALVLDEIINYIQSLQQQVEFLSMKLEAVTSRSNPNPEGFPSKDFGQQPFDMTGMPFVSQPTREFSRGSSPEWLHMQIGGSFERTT
The data set can be described thus: EMSA; LightShift Chemiluminescent EMSA kit; buffer, salt, pH and temperature not stated (as Han et al. 2017). As to conditions: protein: recombinant; vector pET32-GST; label: 5' biotin (Methods); blunt. In general terms: Mobility shift assays separate free from complexed probe on a gel.

B1: MUT-probe2 (both JA response elements mutated) (dsDNA)
DNA 1: AACACATAAAAAAATCTGTGGTTTTATTGGTTTGTTATTTATCAGATACATTTTAAATATTTAATCGATAATCAAATTTTTTATTAAACACCCACCCCCA
DNA 2: TGGGGGTGGGTGTTTAATAAAAAATTTGATTATCGATTAAATATTTAAAATGTATCTGATAAATAACAAACCAATAAAACCACAGATTTTTTTATGTGTT
Take B1: the binding result is on record as “no binding”.
